Assay results: US20250326860A1 (ADAGENE PTE, published 2025)
Where “and” joins values, the source holds several entries; their conditions need not be identical. Equal entries are not always repeated.

What was measured:
[1] = molecular target: T1, human CD3 on cells (Jurkat cells, human T cells) (human, UniProt P07766 23-207); assay: flow cytometry on Jurkat cells, APC anti-human IgG secondary antibody
T1 construct: whole, on cells
Description: The Jurkat cells were thawed, washed, and cultured in an incubator. Jurkat cells were washed and 1×10⁵ Jurkat cells/well were aliquoted into 96-well plate and incubated with test articles for 1 hour at 4° C. After centrifugation and washing, Jurkat cells were further incubated with the secondary antibody APC anti-Human IgG for 30 minutes at 4° C. After centrifugation and washing, the Jurkat cells labelled with antibodies were re-suspended in 2% FBS DPBS and then were analyzed by FACS.

[2] = molecular target: T1, human CD3 on cells (Jurkat cells, human …); assay: cell-based or functional assay

T1 sequence (P07766 23-207): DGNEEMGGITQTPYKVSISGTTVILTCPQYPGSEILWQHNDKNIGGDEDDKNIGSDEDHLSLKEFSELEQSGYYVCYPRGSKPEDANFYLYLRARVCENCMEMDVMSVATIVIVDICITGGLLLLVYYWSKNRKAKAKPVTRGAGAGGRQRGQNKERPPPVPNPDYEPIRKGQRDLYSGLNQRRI

B1: TAC2225 (antibody, V domains shown)
VH: EVQLVESGGGLVQPGGSLRLSCAASGFTFNTYAMNWVRQAPGKGLEWVGRIRSKYNNYATYYADSVKGRFTISRDDSKNTLYLQMNSLRAEDTAVYYCVRHGNFGNSYVSWFAYWGQGTLVTVSS
VL: QAVVTQEPSLTVSPGGTVTLTCGSSTGAVTTSNYANWVQQKPGQAPRGLIGGTNKRAPGVPARFSGSLLGGKAALTLSGAQPEDEAEYYCALWYSNLWVFGGGTKLTVL
notes: also called parental cross-reactive anti-CD3 antibody; humanized SP34
Question: How did the “EC50 (read off the curve)” value [1] turn out when B1 was run?
Answer: ~0.7 nM and ~0.3 nM and ~0.5 nM and ~0.6 nM

Question: And the “Jurkat NFAT reporter assay EC50” value [2]?
Answer: 0.02 nM

Question: And the “Masking efficiency (Jurkat NFAT reporter assay)” value [2]?
Answer: 1 fold
